From US7125847 (RESEARCH FOUNDATION OF STATE UNIVERSITY OF NEW YORK AT …, dated 2006)
Where no end group is shown, it is not given here.

Biological target: stretch-activated channels (cationic SACs) of ventricular myocytes from rabbits with aortic … (rabbit)
Test: cell-based or functional assay

B1: GsMTx-4 purified from Grammostola spatulata venom (peptide)
peptide: GCLEFWWKCNPNDDKCCRPKLKCSKLFKLCNFSSG-NH2
modifications: disulfide (positions not given here); not fully specified (bridges); also: 3 disulfides (ICK motif), pairing not given here
myocyte cell volume reduction relative to that produced by 1.5 T saline: ~40%
